# According to patent US20100255006A1 (Takeda / Millennium, published 2010):
# T1: CARD of caspase-1 (mammalian two-hybrid construct) (UniProt P29466 1-91)
# T1 construct: domain: CARD; also called the CARD of caspase-1; not shown: two-hybrid fusion partner from a pCMV/AD or pCMV/BD plasmid
# T1 sequence (looked up): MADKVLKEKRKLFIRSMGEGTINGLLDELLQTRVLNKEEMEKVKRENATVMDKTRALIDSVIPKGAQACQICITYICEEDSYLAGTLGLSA
# B1: CARD of CARD-5 (mammalian two-hybrid construct) (other, UniProt Q9ULZ3 107-195, looked up)
# chain: AAKPGLHFIDQHRAALIARVTNVEWLLDALYGKVLTDEQYQAVRAEPTNPSKMRKLFSFTPAWNWTCKDLLLQALRESQSYLVEDLERS
# notes: domain: CARD; also called CARD domain of CARD-5; the CARD of CARD-5 (ASC); not shown: two-hybrid fusion partner from a pCMV/AD or pCMV/BD plasmid
# B2: full-length PYRIN-8 (PYRIN-8-FL, residues 1-1061 of SEQ ID NO:18) with a C-terminal FLAG epitope (other, not shown: small tags and cut ends)
# chain: MLRTAGRDGLCRLSTYLEELEAVELKKFKLYLGTATELGEGKIPWGSMEKAGPLEMAQLLITHFGPEEAWRLALSTFERINRKDLWERGQREDLVRDTPPGGPSSLGNQSTCLLEVSLVTPRKDPQETYRDYVRRKFRLMEDRNARLGECVNLSHRYTRLLLVKEHSNPMQVQQQLLDTGRGHARTVGHQASPIKIETLFEPDEERPEPPRTVVMQGAAGIGKSMLAHKVMLDWADGKLFQGRFDYLFYINCREMNQSATECSMQDLIFSCWPEPSAPLQELIRVPERLLFIIDGFDELKPSFHDPQGPWCLCWEEKRPTELLLNSLIRKKLLPELSLLITTRPTALEKLHRLLEHPRHVEILGFSEAERKEYFYKYFHNAEQAGQVFNYVRDNEPLFTMCFVPLVCWVVCTCLQQQLEGGGLLRQTSRTTTAVYMLYLLSLMQPKPGAPRLQPPPNQRGLCSLAADGLWNQKILFEEQDLRKHGLDGEDVSAFLNMNIFQKDINCERYYSFIHLSFQEFFAAMYYILDEGEGGAGPDQDVTRLLTEYAFSERSFLALTSRFLFGLLNEETRSHLEKSLCWKVSPHIKMDLLQWIQSKAQSDGSTLQQGSLEFFSCLYEIQEEEFIQQALSHFQVIVVSNIASKMEHMVSSFCLKRCRSAQVLHLYGATYSADGEDRARCSAGAHTLLVQLPERTVLLDAYSEHLAAALCTNPNLIELSLYRNALGSRGVKLLCQGLRHPNCKLQNLRLKRCRISSSACEDLSAALIANKNLTRMDLSGNGVGFPGMMLLCEGLRHPQCRLQMIQLRKCQLESGACQEMASVLGTNPHLVELDLTGNALEDLGLRLLCQGLRHPVCRLRTLWLKICRLTAAACDELASTLSVNQSLRELDLSLNELGDLGVLLLCEGLRHPTCKLQTLRLGICRLGSAACEGLSVVLQANHNLRELDLSFNDLGDWGLWLLAEGLQHPACRLQKLWLDSCGLTAKACENLYFTLGINQTLTDLYLTNNALGDTGVRLLCKRLSHPGCKLRVLWLFGMDLNKMTHSRLAALRVTKPYLDIGC
# Columns and labels:
# [1] = target: caspase-1 as expressed in the IL-1β secretion assays (UniProt P29466); assay: cell-based or functional assay
# [2] = target: T1, CARD of caspase-1 (mammalian two-hybrid …); assay: mammalian two-hybrid in 293T cells, pFR-Luc firefly reporter
# Procedure: CARD-5 is a relatively small protein containing an N-terminal PYRIN domain and a C-terminal CARD domain (see, e.g., Masumoto et al. (1999) J. Biol. Chem. 274:33835-38). To identify whether the CARD domain of a CARD-containing protein interacted with the CARD of CARD-5, mammalian two-hybrid analysis was carried out using the CARD domains of 22 CARD-containing proteins (FIG. 13A). Mammalian two-hybrid assays were performed as described by Wang et al. (2001) J. Biol. Chem. 276:21405-21409. 293T cells were transfected with pCMV/AD and pCMVIBD plasmids, pFR-Luc firefly reporter (Stratagene), and pRL-TK Renilla reporter (Promega).
# [3] = target: CARD-5 (ASC) as expressed in the NF-kB and IL-1β secretion assays (UniProt Q9ULZ3 1-195); assay: cell-based or functional assay
molecule,measurement,setting,value
CARD-5 (ASC) as expressed in the NF-kB and IL-1β secretion assays (from UniProt Q9ULZ3 1-195),secreted IL-1β (ELISA of supernatants of COS-7L cells co-transfected with mouse pro-IL-1β),[1],150 to 400 pg/mL
B1,fold activation of luciferase activity (mammalian two-hybrid),[2],24 fold
B2,"NF-kB activity (relative luciferase activity, pNF-kB-Luc reporter in 293T cells)",[3],150 fold
